Measured values: paper PMC4158905

Columns and labels:
[1] = molecular target: recombinant human cytoplasmic dynein 1 complex (human) (UniProt Q14204)
[2] = molecular target: recombinant human cytoplasmic dynein 1 complex (human) (UniProt Q14204); experiment: single-molecule two-colour co-localisation (TIRF microscopy); roughly equimolar TMR–dynein and Alexa647–dynein mixed, puncta on microtubules scored for both dyes in kymographs, 2.5 mM ATP; done without and with dynactin and BICD2N
[3] = molecular target: dynein heavy chain (DYNC1H1) (human) (UniProt Q14204); experiment: SEC-MALS; purified recombinant dynein complex; single peak of approximately 1.40 MDa against 1.42 MDa expected for a dimeric complex of all six chains

## native dynactin complex from pig brains (from UniProt A0A287B8J2 1-1281; A0A5G2QD80 1-405)
[1]
  proportion of TMR–dynein complexes with unidirectional minus end-directed movement on microtubules, with dynactin and BICD2N at 20 BICD2N dimers: 1 dynein complex: 2 dynactin complexes: 23%

## recombinant human cytoplasmic dynein 1 complex (from UniProt Q14204 1-4646; O43237-1 1-492; P63172 1-113; Q9NP97-1 1-96; P63167 1-89)
[2]
  percent of dynein puncta that contained both dyes: 6%

## dynein heavy chain (DYNC1H1), Q14204 1-4646
[3]
  stoichiometry N: 2
